Measurements taken from patent US20240270846A1 (published 2024).
Positions count from the first letter of the chain named. In names and notes the source's numbering stands. One block for each binder: values may come before it.

Target: T1, CD3 epsilon homodimer protein (UniProt P07766 23-126)
T1 construct: Construct of the homodimer is not described; also called CD3 (CD3 epsilon)
Experiment: SPR Biacore T200, CD3e homodimer on chip, antibody analyte;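 also: CD3 epsilon homodimer amine-coupled on CM4 sensor chip, antibodies injected as analyte at 25 °C in HBS-EP+, ratio ≥0.8 taken as binding retained versus unaltered parent antibody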

T1 sequence (P07766 23-126): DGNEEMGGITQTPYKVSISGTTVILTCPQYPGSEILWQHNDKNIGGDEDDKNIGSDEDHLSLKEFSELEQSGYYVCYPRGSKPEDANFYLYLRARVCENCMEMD

B1: GLS3000 N53V one-arm antibody (antibody, human IgG1, kappa, L234A L235A, N297A, name in Kabat numbering)
light: DIVMTQSPLSLPVTPGEPASISCRSSQSLVHSNRNTYLHWYQQKPGQAPRLLIYKVSVRFSGVPDRFSGSGSGTDFTLKISRVEAEDVGVYYCGQGTQVPYTFGQGTKLEIKRTVAAPSVFIFPPSDEQLKSGTASVVCLLNNFYPREAKVQWKVDNALQSGNSQESVTEQDSKDSTYSLSSTLTLSKADYEKHKVYACEVTHQGLSSPVTKSFNRGEC
heavy: QVQLVESGGGVVQPGRSLRLSCAASGFTFSNAWMHWVRQAPGKGLEWVAQIKAKSNNYATYYAESVKGRFTISRDDSKNSLYLQMNSLKTEDTAVYYCRYVHYGAYYGVDAWGQGTTVTVSSASTKGPSVFPLAPSSKSTSGGTAALGCLVKDYFPEPVTVSWNSGALTSGVHTFPAVLQSSGLYSLSSVVTVPSSSLGTQTYICNVNHKPSNTKVDKKVEPKSCDKTHTCPPCPAPEAAGGPSVFLFPPKPKDTLMISRTPEVTCVVVDVSHEDPEVKFNWYVDGVEVHNAKTKPREEQYASTYRVVSVLTVLHQDWLNGKEYKCKVSNKALPAPIEKTISKAKGQPREPQVYTLPPSRCELTKNQVSLSCAVKGFYPSDIAVEWESNGQPENNYKTTPPVLDSDGSFFLVSKLTVDKSRWQQGNVFSCSVMHEALHNHYTQKSLSLSPDYKDDDDK
chain: EPKSSDKTHTCPPCPAPELLGGPSVFLFPPKPKDTLMISRTPEVTCVVVDVSHEDPEVKFNWYVDGVEVHNAKTKPREEQYNSTYRVVSVLTVLHQDWLNGKEYKCKVSNKALPAPIEKTISKAKGQPREPQVCTLPPSRDELTKNQVSLWCLVKGFYPSDIAVEWESNGQPENNYKTTPPVLDSDGSFFLYSKLTVDKSRWQQGNVFSCSVMHEALHNRYTQKSLSLSP
ratio of amounts bound (altered form/GLS3000): 0.56

B3: GLS3000 P95D one-arm antibody (antibody, human IgG1, kappa, L234A L235A, N297A, name in Kabat numbering)
light: B1 light with V58N, P100D
heavy: B1 heavy
chain: B1 chain
ratio of amounts bound (altered form/GLS3000): 0.24

B4: GLS3000 N53W one-arm antibody (antibody, human IgG1, kappa, L234A L235A, N297A, name in Kabat numbering)
light: B1 light with V58W
heavy: B1 heavy
chain: B1 chain
ratio of amounts bound (altered form/GLS3000): 0.81

B7: GLS3000 P95E one-arm antibody (antibody, human IgG1, kappa, L234A L235A, N297A, name in Kabat numbering)
light: B1 light with V58N, P100E
heavy: B1 heavy
chain: B1 chain
ratio of amounts bound (altered form/GLS3000): 0.39

B8: GLS3000 N53Y one-arm antibody (antibody, human IgG1, kappa, L234A L235A, N297A, name in Kabat numbering)
light: B1 light with V58Y
heavy: B1 heavy
chain: B1 chain
ratio of amounts bound (altered form/GLS3000): 0.67

B10: GLS3000 P95A one-arm antibody (antibody, human IgG1, kappa, L234A L235A, N297A, name in Kabat numbering)
light: B1 light with V58N, P100A
heavy: B1 heavy
chain: B1 chain
ratio of amounts bound (altered form/GLS3000): 0.63

Next, values leading:

ratio of amounts bound (altered form/GLS3000): 0.37
B2: GLS3000 P95G one-arm antibody (antibody, human IgG1, kappa, L234A L235A, N297A, name in Kabat numbering)
light: B1 light with V58N, P100G
heavy: B1 heavy
chain: B1 chain

ratio of amounts bound (altered form/GLS3000): 0.5
B5: GLS3000 Q90A one-arm antibody (antibody, human IgG1, kappa, L234A L235A, N297A, name in Kabat numbering)
light: B1 light with V58N, Q95A
heavy: B1 heavy
chain: B1 chain

ratio of amounts bound (altered form/GLS3000): 0.43
B6: GLS3000 P95S one-arm antibody (antibody, human IgG1, kappa, L234A L235A, N297A, name in Kabat numbering)
light: B1 light with V58N, P100S
heavy: B1 heavy
chain: B1 chain

ratio of amounts bound (altered form/GLS3000): 0.24
B9: GLS3000 P95L one-arm antibody (antibody, human IgG1, kappa, L234A L235A, N297A, name in Kabat numbering)
light: B1 light with V58N, P100L
heavy: B1 heavy
chain: B1 chain
